Positions count from the first letter of the chain named.
B1: [99mTc]Tc(CO)3-G3-(HE)3 (DARPin G3 with a HEHEHE tag at the C-terminus) (designed binder)
chain: DLGKKLLEAARAGQDDEVRILMANGADVNAKDEYGLTPLYLATAHGHLEIVEVLLKNGADVNAVDAIGFTPLHLAAFIGHLEIAEVLLKHGADVNAQDKFGKTAFDISIGNGNEDLAEILQKLNGSHEHEHE
modifications: [99mTc]Tc(CO)3 on the histidine-containing tag (site-specific radiolabel)
notes: whole chain as printed (after removal of SUMO at QIGG/DLGKK); source: E. coli BL21(DE3), made as a His6-SUMO fusion, purified (HisTrap HP, cut with ULP1, HisTrap flow-through, MonoQ); not shown: (HE)3 (HEHEHE), C-terminal, kept
B2: [99mTc]Tc(CO)3-H6-G3 (DARPin G3 with a hexahistidine tag at the N-terminus) (designed binder)
chain: MRGSHHHHHHGSDLGKKLLEAARAGQDDEVRILMANGADVNAKDEYGLTPLYLATAHGHLEIVEVLLKNGADVNAVDAIGFTPLHLAAFIGHLEIAEVLLKHGADVNAQDKFGKTAFDISIGNGNEDLAEILQKLN
modifications: [99mTc]Tc(CO)3 on the histidine-containing tag (site-specific radiolabel)
notes: whole chain as printed; source: E. coli BL21(DE3), purified (HisTrap HP, MonoQ); not shown: His6, N-terminal, kept
B3: [99mTc]Tc(CO)3-(HE)3-G3 (DARPin G3 with a HEHEHE tag at the N-terminus) (designed binder)
chain: B2 chain with H6E, H8E, H10E
modifications: [99mTc]Tc(CO)3 on the histidine-containing tag (site-specific radiolabel)
notes: whole chain as printed; source: E. coli BL21(DE3), purified (HisTrap HP without imidazole in lysate and wash, MonoQ); not shown: (HE)3 (HEHEHE), N-terminal, kept
B4: [99mTc]Tc(CO)3-G3-H6 (DARPin G3 with a hexahistidine tag at the C-terminus) (designed binder)
chain: MDLGKKLLEAARAGQDDEVRILMANGADVNAKDEYGLTPLYLATAHGHLEIVEVLLKNGADVNAVDAIGFTPLHLAAFIGHLEIAEVLLKHGADVNAQDKFGKTAFDISIGNGNEDLAEILQKLNGSHHHHHH
modifications: [99mTc]Tc(CO)3 on the histidine-containing tag (site-specific radiolabel)
notes: whole chain as printed; source: E. coli BL21(DE3), purified (HisTrap HP, MonoQ); not shown: His6, C-terminal, kept

Target: T1, human epidermal growth factor receptor (HER2) (human (endogenous in SKOV3, BT474, …, UniProt P04626 23-1255))
T1 construct: HER2, endogenous on the human cancer cell lines SKOV3, BT474 (high expression) and DU145 (low expression); source: endogenous, on living SKOV3, BT474 and DU145 cells
Test: radioligand binding; LigandTracer, real time, living SKOV3 cells, room temperature; 0.5 and 2 nM radiolabeled G3 variant, then medium replaced for dissociation; fitted to a one-to-two Langmuir binding model (TraceDrawer); duplicates
Conditions: one partner purified

B1 and B2 are within error of each other in “KD1 (high affinity interaction of the one-to-two fit)” value: 89 ± 11 pM for the first, 90 ± 5 pM for the second.

B3 and B4 are within error of each other in “KD1 (high affinity interaction of the one-to-two fit)” value: 96 ± 3 pM for the first, 118 ± 38 pM for the second.

Compared with B1, B2 is 1.8-fold higher in “KD2 (low affinity interaction of the one-to-two fit)” value: 1.8 ± 0.5 nM for the first, 3.3 ± 0.2 nM for the second.

B3 and B4 are within error of each other in “KD2 (low affinity interaction of the one-to-two fit)” value: 1.2 ± 0.1 nM for the first, 2.5 ± 1.5 nM for the second.

Source: publication PMC6599047, “Optimal composition and position of histidine-containing tags improves biodistribution of ^99mTc-labeled DARPin G3” (Scientific Reports, 2019)
